± gives the uncertainty stated by the source.
Assay: self-splicing fitness, log relative to wild type (ln ratio); higher = more splicing; Tetrahymena group I intron in knt gene, E. coli kanamycin selection, DiMSum; sequences stand for … in CUCUCU…GGAGGGAAAAGUUAUCAGGCAUGCACCUGGUAGCUAGUCUUUAAACCAAUAGAUUGCAUCGGUUUAAAAGGCAAGACCGUCAAAUUGCGGGAAAGGGGUCAACAGCCGUUCAGUACCAAGUCUCAGGGGAAACUUUGAGAUGGCCUUGCAAAGGGUAUGGUAAUAAGCUGACGGACAUGGUCCUAACCACGCAGCCAAGUCCUAAGUCAACAGAUCUUCUGUUGAUAUGGAUGCAGUUCACAGACUAAAUGUCGGUCGGGGAAGAUGUAUUCUUCUCAUAAGAUAUAGUCGGACCUCUCCUUAAUGGGAGCUAGCGGAUGAAGUGAUGCAACACUGGAGCCGCUGGGAACUAAUUUGUAUGCGAAAGUAUAUUGAUUAGUUUUGGAGUACUCGUGGUCG
Outline: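 A randomised library covering all eight P1ex-region intron nucleotides was built with the intron in the knt kanamycin-resistance gene on pET-22b(+) and held in E. coli BL21(DE3). Cells were grown overnight at 37°C or 30°C on LB agar, with or without 25 μg/mL kanamycin, plus 100 μg/mL carbenicillin, 50 μM IPTG and 0.2% rhamnose, and pooled colonies were amplicon-sequenced on an Illumina HiSeq 2500. DiMSum fitness is the error-weighted combination of wild-type-normalised replicate fold changes, kanamycin versus none.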

Sequence | self-splicing fitness (ln) (30 °C) | self-splicing fitness (ln) (37 °C)
UUUUAGCAAUAUUACGAGCU | -2.57 ± 0.33 | -2.22 ± 0.31
AGUGAGCAAUAUUACGUACU | -1.71 ± 0.13 | -1.15 ± 0.17
UCUCAGCAAUAUUACGAGCG | -0.123 ± 0.091 | -0.0856 ± 0.1
UCCGAGCAAUAUUACGCCAG | -3.95 ± 0.28 | -2.24 ± 0.31
CCAGAGCAAUAUUACGAAAU | -3.47 ± 0.23 | -2.93 ± 0.25
GAUAAGCAAUAUUACGCGGG | -2.89 ± 0.11 | -2.34 ± 0.12
AAUUAGCAAUAUUACGUCAG | -1.16 ± 0.14 | -1.47 ± 0.24
GGCAAGCAAUAUUACGCUAU | -0.0842 ± 0.13 | -1.13 ± 0.11
AACAAGCAAUAUUACGGGCU | -1.82 ± 0.073 | -1.15 ± 0.099
AAUCAGCAAUAUUACGGCUG | -2.34 ± 0.15 | -1.87 ± 0.2
AUCUAGCAAUAUUACGAACG | -0.816 ± 0.12 | -0.644 ± 0.22
ACCUAGCAAUAUUACGAAUG | -3.04 ± 0.15 | -2.3 ± 0.13
ACGAAGCAAUAUUACGACGU | -2.78 ± 0.17 | -1.88 ± 0.19
CUCUAGCAAUAUUACGAUCA | -2.28 ± 0.23 | -2.58 ± 0.33
GGGAAGCAAUAUUACGAAAU | -3.24 ± 0.19 | -2.26 ± 0.22
GGGGAGCAAUAUUACGAUAU | -2.95 ± 0.4 | -0.987 ± 0.24
CCACAGCAAUAUUACGGCGA | -3.36 ± 0.18 | -1.63 ± 0.13
GAGAAGCAAUAUUACGCUGU | -3.35 ± 0.3 | -1.45 ± 0.29
CCUAAGCAAUAUUACGGUCG | -0.889 ± 0.065 | -0.252 ± 0.086
GUUGAGCAAUAUUACGUACU | -2.91 ± 0.25 | -2.15 ± 0.2
GCUCAGCAAUAUUACGAAUG | -1.59 ± 0.12 | -0.636 ± 0.14
CUCCAGCAAUAUUACGUCAC | -3.88 ± 0.26 | -2.69 ± 0.29
GGGAAGCAAUAUUACGCGAC | -2.77 ± 0.37 | -1.5 ± 0.32
ACUUAGCAAUAUUACGAGCU | -0.379 ± 0.099 | -0.0037 ± 0.14

Sequence | self-splicing fitness (ln) (30 °C) | self-splicing fitness (ln) (37 °C)
GACUAGCAAUAUUACGGUGA | -1.07 ± 0.11 | -0.694 ± 0.097
GGUGAGCAAUAUUACGUGUC | -3.03 ± 0.26 | -1.99 ± 0.32
AGGAAGCAAUAUUACGGCAU | -1.28 ± 0.13 | -0.506 ± 0.15
CACCAGCAAUAUUACGUCAC | -2.9 ± 0.15 | -2.9 ± 0.3
CAUUAGCAAUAUUACGCAUU | -3.32 ± 0.15 | -1.62 ± 0.094
UGCUAGCAAUAUUACGACGU | -1.71 ± 0.22 | -2.36 ± 0.32
GGUUAGCAAUAUUACGUUUC | -3.04 ± 0.21 | -0.645 ± 0.18
UUACAGCAAUAUUACGAUGC | -3.18 ± 0.27 | -2.95 ± 0.36
UGCGAGCAAUAUUACGUCAG | -2.69 ± 0.27 | -2.11 ± 0.43
UAAGAGCAAUAUUACGAUAU | -3.22 ± 0.24 | -2.86 ± 0.28
GAUCAGCAAUAUUACGACUU | 0.107 ± 0.092 | -0.119 ± 0.11
CCGGAGCAAUAUUACGUCCG | -3.03 ± 0.37 | –
GGCGAGCAAUAUUACGUUUG | -2.31 ± 0.21 | -2.78 ± 0.38
UUGCAGCAAUAUUACGAUGC | -3.16 ± 0.46 | -1.54 ± 0.45
AAAGAGCAAUAUUACGCGUA | -1.96 ± 0.18 | -1.61 ± 0.16
UGCGAGCAAUAUUACGGGGA | -2.81 ± 0.39 | -1.9 ± 0.29
UAAGAGCAAUAUUACGUUUC | -3.76 ± 0.26 | -2.51 ± 0.39
GUAUAGCAAUAUUACGCUAG | -2.46 ± 0.43 | -0.609 ± 0.3
CCACAGCAAUAUUACGGGGG | -2.71 ± 0.093 | -2.4 ± 0.16
AGAAAGCAAUAUUACGAGAU | -3.45 ± 0.24 | -1.99 ± 0.2
AUUGAGCAAUAUUACGGGCC | -2.96 ± 0.36 | -2.05 ± 0.43
AAGCAGCAAUAUUACGACCA | -0.635 ± 0.12 | -0.265 ± 0.14
UGCGAGCAAUAUUACGAAUG | -2.77 ± 0.18 | -2.43 ± 0.23
